Test results reported in patent publication US20170320956A1 (KYMAB, published 2017).
Where two headings read alike, the source gives them in different places.

T1: recombinant human LIGHT-214E, FLAG-tagged extracellular domain (human)
T1 chain: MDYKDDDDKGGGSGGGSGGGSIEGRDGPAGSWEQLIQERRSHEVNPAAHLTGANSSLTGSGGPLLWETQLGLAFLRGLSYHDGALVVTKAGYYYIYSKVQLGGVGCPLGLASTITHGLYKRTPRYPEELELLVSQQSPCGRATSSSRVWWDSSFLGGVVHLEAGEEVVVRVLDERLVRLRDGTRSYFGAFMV

T2: rabbit LIGHT protein, FLAG-tagged extracellular domain (rabbit)
T2 chain: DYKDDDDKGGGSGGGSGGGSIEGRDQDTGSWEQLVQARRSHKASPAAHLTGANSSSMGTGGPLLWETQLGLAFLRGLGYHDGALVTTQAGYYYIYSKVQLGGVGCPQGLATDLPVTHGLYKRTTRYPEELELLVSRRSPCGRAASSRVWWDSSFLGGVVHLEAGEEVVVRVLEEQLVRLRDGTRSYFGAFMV

T3: recombinant human LIGHT-214K, FLAG-tagged extracellular domain (human)
T3 construct: the IgK leader peptide is marked only by underlining (not visible here), so its residues were not removed; Trimer
T3 chain: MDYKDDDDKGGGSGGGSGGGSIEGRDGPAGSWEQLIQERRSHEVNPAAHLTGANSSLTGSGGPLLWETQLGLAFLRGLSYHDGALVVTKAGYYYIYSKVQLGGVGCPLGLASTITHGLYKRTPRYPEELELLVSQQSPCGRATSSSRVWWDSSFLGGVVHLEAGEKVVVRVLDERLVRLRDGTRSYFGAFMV

T4: mouse LIGHT (mouse, UniProt Q9QYH9 72-239, limits assumed)
T4 construct: also called murine LIGHT
T4 sequence (looked up): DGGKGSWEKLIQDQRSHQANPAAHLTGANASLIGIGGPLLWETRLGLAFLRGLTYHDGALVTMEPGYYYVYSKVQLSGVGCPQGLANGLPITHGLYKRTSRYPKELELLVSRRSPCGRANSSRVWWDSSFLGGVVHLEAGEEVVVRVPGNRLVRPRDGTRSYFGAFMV


Columns and labels:
[1] = target: T1, recombinant human LIGHT-214E, …; experiment: cell-based or functional assay
[2] = target: T2, rabbit LIGHT protein, FLAG-tagged …; experiment: SPR ProteOn, mAb captured on anti-human IgG, 25 C
Method: This created a capture surface suitable for capturing human antibodies. The LIGHT antibodies were captured on this anti-human IgG surface, and then human and rabbit LIGHT proteins were passed over captured LIGHT Abs at a concentration of 200 nM. A buffer injection was used to double reference the LIGHT binding sensorgrams. The assay was run at 25° C., using HBS-EP as running buffer.

[3] = target: T1, recombinant human LIGHT-214E, …; experiment: SPR ProteOn, mAb captured on anti-human IgG, 37 C
[4] = target: T3, recombinant human LIGHT-214K, …; experiment: SPR ProteOn, mAb captured on anti-human IgG, 37 C
[5] = target: T5, recombinant cynomolgus monkey LIGHT, FLAG-tagged extracellular domain (cynomolgus (Macaca fascicularis), UniProt E9NVF7 59-240); experiment: SPR ProteOn, mAb captured on anti-human IgG, 37 C
T5 construct: extracellular domain; also called cynomolgus LIGHT; cyno LIGHT

[6] = target: T1, recombinant human LIGHT-214E, …; experiment: HTRF competition, AlexaFluor 647 HVEM-Fc binding to Flag-hLIGHT-214E
Method: (§1) The following methods were carried out with a titration of inhibitor in order to establish the clone potency as measured by IC50 values in the assay. 5 μl of Flag-tagged hLIGHT (in-house) diluted to 2.5 nM final concentration (10 nM working concentration) in HTRF buffer with 5 μl of a titration of antibody purified from hybridoma supernatant diluted in HTRF assay buffer from 300 nM final (1200 nM working concentration) was pre-incubated for 1 hour at room temperature. To wells used to define total binding, 5 μl of LIGHT (10 nM working, 2.5 nM final) and 5 μl of hybridoma maintaining media (HMM,)) were added. To wells used to define non specific binding (receptor only) 10 μl of HMM was added. Total and non specific binding wells were pre-incubated for 1 hr at RT in the same plate as wells containing titration of inhibitor.
(§2) The final IgG4(PE) format lead panel was analysed for neutralization activity as in Example 3. Antibodies were tested for their ability to neutralize LIGHT binding to its receptors, HVEM and LTβR, in an HTRF assay. Antibodies were also tested for their ability to neutralize LIGHT-induced IL-8 release by HT29 colon carcinoma cells.
(§3) HTRF assays were performed as per Example 3, with the following modifications: HVEM-Fc and LTβR-Fc were labelled with AlexaFluor 647, and an anti-Flag K antibody (Cisbio) was used for detection.

[7] = target: T1, recombinant human LIGHT-214E, …; experiment: HTRF competition, AlexaFluor 647 LTβR-Fc binding to Flag-hLIGHT-214E
Method: as §1, §2, §3

[8] = target: T3, recombinant human LIGHT-214K, …; experiment: SPR cross-binding study, IgG4(PE) format; column hLIGHT 214K Binder
Method: All antibodies tested in the competition SPR were in human IgG4(PE) format (see Example 5 for re-formatting methods). To investigate antibodies that may share the same binding region on LIGHT, an SPR based assay was carried out on the ProteOn™ XPR36 Array System. […] The anti-human IgG surface was used as a capture surface to capture test antibodies as “ligands” for analysis. Using the ProteOn™ XPR36 Array System ability to address the capture surface in either the vertical or horizontal orientation the assay was carried out as follows. The “Ligand” antibodies were captured in the vertical orientation, and then a 1 in 1000 dilution of mouse serum was used to block the capture surface in the horizontal orientation. LIGHT was then passed over the capture surface in the horizontal orientation and bound to the captured ligand antibody, after which the same ligand antibody was passed over the “antibody-LIGHT” complex, (LIGHT is a trimer, so this ensures all available LIGHT molecules are bound to by the Ligand antibody), again the second application of the ligand antibody was in the vertical orientation. […] Binding/no-binding is determined by monitoring the sensorgrams, which were double referenced using a non-LIGHT binding antibody as a control sample and was included with every set of ligand antibodies run. […]

[9] = target: T1, recombinant human LIGHT-214E, …; experiment: cell-based or functional assay
[10] = target: human LIGHT-214E, full length, expressed on the surface of CHO-S cells (human, UniProt O43557 1-240); experiment: FACS, CHO-S cells expressing hLIGHT-214E
mouse LIGHT [11] = target: T4, mouse LIGHT; experiment: SPR ProteOn, mAb captured on anti-mouse IgG
[12] = target: T1, recombinant human LIGHT-214E, …; experiment: HTRF competition, HVEM-Fc binding to Flag-hLIGHT-214E
Method: as §1

[13] = target: T1, recombinant human LIGHT-214E, …; experiment: HTRF competition, LTβR-Fc binding to Flag-hLIGHT-214E
Method: as §1
LIGHT receptor was diluted in HTRF assay buffer and added to all wells, 5 μl/well of HVEM-Fc or LTβR-Fc (R&D systems) at 1.2 nM for HVEM (0.3 nM final) and 0.4 nM for LTβR (0.1 nM final).

[14] = target: T1, recombinant human LIGHT-214E, …; experiment: SPR ProteOn, mAb captured on anti-mouse IgG, LIGHT 256 nM, 25 C, apparent affinity
Method: (§4) SPR analysis was carried out using the ProteOn™ XPR36 Array System (BioRad). Anti-mouse IgG (GE Healthcare BR-1008-38) was immobilised on a GLC biosensor surface using amine coupling, the surface was then blocked using 1M ethanolamine. […] Apparent affinities for the LIGHT-antibody interaction were determined using the 1:1 model inherent to the ProteOn XPR36 analysis software. The assay was run using HBS-EP (Teknova) as running buffer and carried out at 25° C.

[15] = target: T3, recombinant human LIGHT-214K, …; experiment: as above
Method: as §4

[16] = target: T5, recombinant cynomolgus monkey LIGHT, …; experiment: as above
Method: as §4
Target sequence in this assay (E9NVF7 entry or part of it): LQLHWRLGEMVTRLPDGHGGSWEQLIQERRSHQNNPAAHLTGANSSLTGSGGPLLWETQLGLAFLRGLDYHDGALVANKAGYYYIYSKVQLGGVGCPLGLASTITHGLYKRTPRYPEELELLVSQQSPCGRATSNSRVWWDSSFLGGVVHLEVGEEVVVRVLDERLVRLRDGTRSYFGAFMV

mouse LIGHT [17] = target: T4, mouse LIGHT; experiment: SPR ProteOn, mAb captured on anti-human IgG
[18] = target: T1, recombinant human LIGHT-214E, …; experiment: HTRF competition, AlexaFluor 647 HVEM-Fc binding to Flag-hLIGHT-214E
[19] = target: T1, recombinant human LIGHT-214E, …; experiment: HTRF competition, AlexaFluor 647 LTβR-Fc binding to Flag-hLIGHT-214E
[20] = target: T3, recombinant human LIGHT-214K, …; experiment: SPR ProteOn, mAb captured on anti-human IgG, 25 C, apparent affinity

Binder	HT29 IL-8 release, IC50 [1] [nM]	binding result [2]	Kd [4] [nM]	IC50 [6] [nM]	IC50 [7] [nM]	HT29 IL-8 release, IC50 [9] [nM]	binding result [10]	binding result (mouse LIGHT [11])	IC50 [12] [nM]	IC50 [13] [nM]	Kd [15] [nM]	Kd [16] [nM]	binding result (mouse LIGHT [17])	IC50 [18] [nM]	IC50 [19] [nM]	other results
13H04 in human IgG4(PE) format (antibody, V domains shown) VH: QVQLVQSGAEVKKPGASVKVSCKASGYTFTSYGISWVRQAPGQGLEWMGWISAHNANTNYAQKLQGRVTMTTDTSTSTAYMELRSLRSDDTAMYYCARLYRNWFDPWGQGTLVTVSS VL: QSALTQPASVSGSPGQSITISCTGTSSDVGGYNYVSWYQQHPGKAPKLMIYDVSKRPSGVSNRFSGSKSGNTASLTISGLQAEDEADYYCCSYAGSSTLLFGGGTKLTVL	1.22	binds	0.401	1.29	3.15	–	–	–	–	–	–	–	–	–	–	Kd [3]: 0.293 nM; Kd [5]: 0.207 nM
117C06 in human IgG4(PE) format (antibody, V domains shown) VH: QVQLVQSGAEVKKPGASVKVSCKASGYTFVNFGISWVRQAPGQGLEWMGWISVYSGNTNYAQKLQGRVTLTTDTSTTTAYMELRSLRSDDTAVYYCARHNWNDYWGQGTLVTVSS VL: not shown	–	–	–	–	–	–	–	–	–	–	–	–	–	–	–	binding result [8]: no binding
98C07 (purified from hybridoma supernatant, mouse IgG) (antibody, V domains shown, Murine C / human V chimeric IgG, kappa, purified from hybridoma supernatant) VH: QVQLVESGGGLVKPGGSLRLSCAASGFTFSDYYMSWIRQAPGKGLEWVSYISRSSFIYYSESVKGRFTISRDNAKNSLYLQMNSLRAEDTAVYYCARWELSPFDYWGQGTLVTVSS VL: DIQMTQSPSSLSASVGDRVTITCRASQGISNYLAWFQQKPGKAPKSLIYAASSLQSGVPSKFSGSGSGTDFTLTISSLQPEDFATYFCQQYNTYPFTFGPGTKVDIK	–	–	–	–	–	0.166	binds	no binding	1.08	2.06	296	0.257	–	–	–	Kd [14]: 0.045 nM
18E04 (purified from hybridoma supernatant, mouse IgG) (antibody, V domains shown, Murine C / human V chimeric IgG, lambda, purified from hybridoma supernatant) VH: QVLLVQSGAEVKKPGASVKVSCKASGYTFTHFDINWVRQATGQGLEWMGWMNPDSDNTDYAQEFQGRVTMTRDTSISTAYMELSSLRSEDTAVYYCARGGTTLDYWGQGTLVTVSS VL: SYELTQPPSVSVSPGQTARITCSGDALPKKYAYWYQQKSGQAPVLVIYEDSKRPSGIPERFSGSSSGTMATLTISGAQVEDEADYYCYSTDSSDNHVIFGGGTKLTVL	–	–	–	–	–	0.327	binds	no binding	1.32	1.64	2.33	3.11	–	–	–	–
01C06 in human IgG4(PE) format (antibody, V domains shown) VH: QVQLVESGGGLVKPGGSLRLSCAASGFTFSDYYMNWIRQAPGKGLEWIADISSRDNTIYYADSVKGRFTISRDNAKNSLYLQMNSLRAEDTAVYYCARERGFGDYFGMDVWGQGTTVTVSS VL: AIQLTQSPSSLSASVGDRVTIACRASQDISSALAWFRQTPGKTPKLLIYDASSLESGVPSRFLGSGSGTDFTLTISSLQPEDFAIYYCQQFNTYPLTFGGGTKVEIK	–	–	–	–	–	0.556	–	–	–	–	–	–	no binding	0.698	2.07	binding result [20]: binds
01C02 in human IgG4(PE) format (antibody, V domains shown) VH: QVQLVQSGAEVQKPGASVMVSCKASGYTFTYYGISWVRQAPGQGLEWMGWISANSGNTNYAQKFQGRVTMTTDTSTNTAYMELRSLRTDDTAVYYCAKGGVAVLEYWGQGTLVTVSS VL: DIQLTQSPSFLSASVGDRVTITCWASQGISSYLAWYQQKPGKAPNLLIYVASTLQSGVPSRFSGSGSGTEFTLTISSLQPEDFATYYCQQLKIYPLTFGGGTKVEIK	0.26	binds	0.822	1.64	3.48	0.261	–	–	–	–	–	–	no binding	1.64	3.48	–
